Assay results: patent US20250042994A1 (HAINAN SIMCERE ZAIMING PHARMACEUTICAL, published 2025)
Numbering of substitutions follows the chain as printed. One block for each binder: values may come before it.

Experiments:
[1] = biological target: T1, Human CD19-his protein (human, UniProt P15391 20-291); test: ELISA, antibody at 0.10 nM
T1 construct: bought protein; also called human CD19 protein; recombinant human CD19-His; not shown: His tag
T1 sequence (looked up): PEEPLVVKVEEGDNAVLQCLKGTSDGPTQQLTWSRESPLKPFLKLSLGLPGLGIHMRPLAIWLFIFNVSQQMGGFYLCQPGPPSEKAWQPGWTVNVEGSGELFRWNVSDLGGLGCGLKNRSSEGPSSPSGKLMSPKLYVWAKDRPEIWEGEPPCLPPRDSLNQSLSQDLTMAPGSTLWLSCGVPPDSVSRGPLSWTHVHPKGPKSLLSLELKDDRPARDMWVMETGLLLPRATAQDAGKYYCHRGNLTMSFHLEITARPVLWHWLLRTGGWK

[2] = biological target: T1, Human CD19-his protein; test: ELISA, antibody at 0.001 nM
[3] = biological target: T1, Human CD19-his protein; test: ELISA, antibody at 0.0001 nM
[4] = biological target: T1, Human CD19-his protein; test: ELISA, antibody at 10 nM
[5] = biological target: T1, Human CD19-his protein; test: ELISA on coated human CD19-His
[6] = biological target: T2, murine CD19 protein (murine, UniProt P25918 17-287, limits assumed); test: ELISA, coated murine CD19
T2 construct: bought protein; also called commercial murine CD19
T2 sequence (looked up): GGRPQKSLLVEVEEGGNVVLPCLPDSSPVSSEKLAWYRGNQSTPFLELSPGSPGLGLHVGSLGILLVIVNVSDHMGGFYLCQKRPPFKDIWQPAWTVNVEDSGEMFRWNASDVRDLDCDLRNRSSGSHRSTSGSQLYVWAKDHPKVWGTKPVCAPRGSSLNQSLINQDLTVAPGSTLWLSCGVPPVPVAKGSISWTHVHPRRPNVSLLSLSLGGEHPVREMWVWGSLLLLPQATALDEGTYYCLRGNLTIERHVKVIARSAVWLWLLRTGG
In short: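 Plates coated overnight at 4° C with recombinant murine or monkey CD19 and blocked with 2% BSA. Chimeric antibodies, serially diluted from 100 nM, bound for 2 h at 37° C. TMB development for 10 min with OD450 read-out.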

[7] = biological target: T1, Human CD19-his protein; test: ELISA, antibody at 0.01 nM
[8] = biological target: T1, Human CD19-his protein; test: ELISA, antibody at 100 nM
[9] = biological target: T3, human CD19 exon1-3-his protein (human, UniProt P15391 20-186, limits assumed); test: ELISA, coated at 2 ug/mL
T3 construct: made in HEK293E cells; also called membrane-distal end; not shown: His tag
T3 sequence (looked up): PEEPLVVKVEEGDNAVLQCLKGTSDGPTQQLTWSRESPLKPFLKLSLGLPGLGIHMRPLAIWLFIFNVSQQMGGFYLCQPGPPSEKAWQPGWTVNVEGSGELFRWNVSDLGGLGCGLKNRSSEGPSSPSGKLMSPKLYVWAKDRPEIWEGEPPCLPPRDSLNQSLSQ

[10] = biological target: T1, Human CD19-his protein; test: ELISA, antibody at 1.00 nM
[11] = biological target: T4, Human CD19-his protein (human, UniProt P15391 20-291); test: ELISA on coated human CD19-His
T4 construct: bought protein; also called recombinant human CD19-His; CD19 full-length protein; not shown: His tag
T4 sequence (looked up): T1 sequence (looked up)

[12] = biological target: T5, human CD19 exon1-3-His tag protein (human, UniProt P15391 20-186, limits assumed); test: ELISA, coated human CD19 exon 1-3-His
T5 construct: membrane-distal part of the extracellular region, made in HEK293E cells; not shown: His tag
T5 sequence (looked up): T3 sequence (looked up)

[13] = biological target: T6, human CD19 on Raji cells (human, UniProt P15391 20-556); test: FACS on Raji cells
T6 construct: whole, on cells
T6 sequence (looked up): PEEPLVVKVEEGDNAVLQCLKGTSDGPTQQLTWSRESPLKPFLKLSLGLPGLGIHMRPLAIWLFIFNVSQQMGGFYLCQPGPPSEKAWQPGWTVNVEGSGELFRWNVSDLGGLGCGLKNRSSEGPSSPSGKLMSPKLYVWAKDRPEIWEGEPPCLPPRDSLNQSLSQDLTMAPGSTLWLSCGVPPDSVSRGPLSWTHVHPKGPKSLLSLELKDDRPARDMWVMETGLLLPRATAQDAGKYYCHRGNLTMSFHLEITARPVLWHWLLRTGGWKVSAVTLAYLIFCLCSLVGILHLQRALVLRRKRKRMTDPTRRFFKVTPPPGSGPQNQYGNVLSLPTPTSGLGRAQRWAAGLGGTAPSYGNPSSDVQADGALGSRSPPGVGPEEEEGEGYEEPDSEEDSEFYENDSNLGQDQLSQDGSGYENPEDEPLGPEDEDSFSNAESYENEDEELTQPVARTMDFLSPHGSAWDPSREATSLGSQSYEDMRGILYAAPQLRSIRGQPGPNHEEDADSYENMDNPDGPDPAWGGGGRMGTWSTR
Method: (§1) After the digestion was terminated, the cells were washed 2 times with a PBS buffer; and for suspension cell Raji, the supernatant of the medium was discarded by directly centrifugation, and the cell pellet was washed 2 times with PBS. After counting the cells in the previous step, the cell pellet was resuspended with [PBS+2% (w/w) BSA] blocking solution to 2×10⁶ cells/ml, and added to a 96-well FACS reaction plate at 50 μl/well, and then the sample to be tested was added at 50 μl/well, and incubated on ice for 2 h. The obtained mixture was centrifuged and washed 3 times with a PBS buffer. […] The obtained mixture was centrifuged and washed 5 times with a PBS buffer, and FACS (FACS Canto™, purchased from BD Company) was used for detection and result analysis. Data analysis was performed by software (FlowJo) to obtain the mean fluorescence intensity (MFI) of the cells. And then software (GraphPad Prism8) was used for analysis, data fitting, and EC50 value calculation. […] The same method was used to detect the binding of the chimeric antibodies to endogenous CD19-negative cells, MoLT4 cells (purchased from ATCC, CRL-1582), and CHO-K1 cells.

[14] = biological target: T7, human CD19 on CHO-K1-human CD19 cells (human, UniProt P15391 20-556); test: FACS on CHO-K1-human CD19 cells
T7 construct: whole, on cells; also called CHO-K1-human CD19-2C8
T7 sequence (looked up): T6 sequence (looked up)
Method: as §1

[15] = biological target: T4, Human CD19-his protein; test: ELISA, coated human CD19-His
Method: Human CD19-his protein (purchased from ACROBiosystems, catalog number: CD9-H52H2) was diluted with PBS to a final concentration of 4 μg/mL, and then added to a 96-well ELISA plate at 100 μl/well. The plate was sealed with a plastic film and incubated overnight at 4° C., the plate was washed 2 times with PBS the next day, and then a blocking solution [PBS+2% (w/w) BSA] was added for blocking at room temperature for 2 h. The blocking solution was poured off, and 100 nM gradiently diluted CD19 chimeric antibody or control antibody was added at 50 μl/well. After incubation at 37° C. for 2 h, the plate was washed 3 times with PBS. […] TMB substrate was added at 50 μl/well, and incubated at room temperature for 10 min, and then a stop solution (1.0 N HCl) was added at 50 μl/well. The OD450 nm values were read by an ELISA microplate reader (Multimode Plate Reader, EnSight, purchased from Perkin Elmer).

[16] = biological target: T4, Human CD19-his protein; test: SPR Biacore, method of example 7.1, human CD19-His
Method: A sample buffer and a running buffer were HBS-EP+ (10 mM HEPES, 150 mM NaCl, 3 mM EDTA and 0.05% surfactant P20) (GE Healthcare; BR-1006-69). The flow-through cell was set to 25° C. The sample block was set to 16° C. Both were pretreated with the running buffer. In each cycle, an antibody to be detected was first captured with a Protein A chip, and then a single concentration of CD19 antigen protein was injected. The binding and dissociation processes of the antibody and the antigen protein were recorded, and finally Glycine pH 1.5 (GE Healthcare; BR-1003-54) was used to complete chip regeneration. The binding was measured by injecting different concentrations of recombinant human CD19-His proteins in a solution for 240 s with a flow rate of 30 μl/min. The concentration started from 200 nM (see the detailed results for the actual concentration in the test) and was diluted at 1:1, making a total of 5 concentrations. The dissociation phase was monitored for up to 600 s and was triggered by switching from sample solution to running buffer. The surface was regenerated by washing with a 10 mM glycine solution (pH 1.5) for 30 s at a flow rate of 30 μl/min. Bulk refractive index difference was corrected by subtracting the response obtained from the goat anti-human Fc surface. Blank injection was also subtracted (=double reference). For calculation of apparent KD and other kinetic parameters, Langmuir 1:1 model was used.
SPR (biacore) detection and data analysis were performed according to the method in example 7.1.

- OD450 [1]: 0.51
- OD450 [2]: 0.06
- OD450 [3]: 0.05
- OD450 [4]: 1.72
- EC50 (read off the curve) [5]: ~0.3 nM
- binding result [6]: no binding
- OD450 [7]: 0.11
- OD450 [8]: 1.64
- binding result [9]: no binding
- OD450 [10]: 1.37
B1: F4.33.12 (antibody, human IgG1, V domains shown)
VH: QVQLQQSGAELVRPGSSVKISCKGSGYAFSSYWMNWVKQRPGQGLEWIGQIYPGDGDTNYNGKFKGKATLTADKSSSTAYMQLSSLTSEDSAVYFCARAGFYYGSDSSMDYWGQGTSVTVSS
VL: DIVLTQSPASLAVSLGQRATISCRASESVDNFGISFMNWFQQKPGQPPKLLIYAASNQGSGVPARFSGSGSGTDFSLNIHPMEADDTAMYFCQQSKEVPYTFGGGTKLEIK
notes: human-murine chimeric antibody, human IgG1

- EC50 (read off the curve) [11]: ~0.05 nM
- OD450 at 0.0001 nM [12]: 0.05 OD450
- OD450 at 0.001 nM [12]: 0.05 OD450
- OD450 at 0.01 nM [12]: 0.05 OD450
- OD450 at 0.10 nM [12]: 0.05 OD450
- OD450 at 1.00 nM [12]: 0.05 OD450
- OD450 at 10 nM [12]: 0.06 OD450
- OD450 at 100 nM [12]: 0.09 OD450
- EC50 [13]: 0.43 nM
- Maximum mean fluorescence intensity [13]: 31700 MFI
- EC50 [14]: 1.23 nM
- Maximum mean fluorescence intensity [14]: 54200 MFI
- OD450 at 0.0001 nM [15]: 0.1 OD450
- OD450 at 0.001 nM [15]: 0.13 OD450
- OD450 at 0.01 nM [15]: 0.39 OD450
- OD450 at 0.10 nM [15]: 1.7 OD450
- OD450 at 1.00 nM [15]: 2.68 OD450
- OD450 at 10 nM [15]: 2.58 OD450
- OD450 at 100 nM [15]: 3 OD450
- Kd [16]: 0.00058 nM
- koff [16]: 6.84e-08 s⁻¹
- kon [16]: 118000 M⁻¹ s⁻¹
B2: F3.121.4-L1H2 (antibody, mouse IgG1, kappa, V domains shown)
VH: EVQLVQSGAEVKKPGASVKVSCKASGYTFTNYWMHWVRQAPGQGLEWMGEIDPSDNYANYNQEFQGRVTITVDKSASTAYMELSSLRSEDTAVYYCARHDGYFGALDYWGQGTTVTVSS
VL: EIVLTQSPATLSLSPGERATLSCSASSSISSNYLHWYQQKPGQAPRFLIYRTSNLASGIPARFSGSGSGTDFTLTISSLEPEDFAVYYCQQASSIPRMFTFGQGTKLEIKR
notes: humanized antibody of F3.121.4, VL1+VH2, murine IgG1 constant regions

- EC50 (read off the curve) [11]: ~0.05 nM
- OD450 at 0.0001 nM [12]: 0.07 OD450
- OD450 at 0.001 nM [12]: 0.06 OD450
- OD450 at 0.01 nM [12]: 0.06 OD450
- OD450 at 0.10 nM [12]: 0.07 OD450
- OD450 at 1.00 nM [12]: 0.08 OD450
- OD450 at 10 nM [12]: 0.08 OD450
- OD450 at 100 nM [12]: 0.11 OD450
- EC50 [13]: 0.43 nM
- Maximum mean fluorescence intensity [13]: 30500 MFI
- EC50 [14]: 1.18 nM
- Maximum mean fluorescence intensity [14]: 51600 MFI
- OD450 at 0.0001 nM [15]: 0.12 OD450
- OD450 at 0.001 nM [15]: 0.16 OD450
- OD450 at 0.01 nM [15]: 0.44 OD450
- OD450 at 0.10 nM [15]: 1.79 OD450
- OD450 at 1.00 nM [15]: 2.73 OD450
- OD450 at 10 nM [15]: 2.64 OD450
- OD450 at 100 nM [15]: 2.84 OD450
- Kd [16]: 0.0284 nM
- koff [16]: 3.45e-06 s⁻¹
- kon [16]: 121000 M⁻¹ s⁻¹
B3: F3.121.4-L1H1 (antibody, mouse IgG1, kappa, V domains shown)
VH: B2 VH with G44R
VL: B2 VL
notes: humanized antibody of F3.121.4, VL1+VH1, murine IgG1 constant regions
